{"source": "paper PMC5430821", "target": "rat synaptotagmin 2 fused to the DCTM exosome-sorting peptide, displayed on exosomes (rat) (UniProt P29101)", "sequence (P29101 whole entry, the tested form may be a part)": "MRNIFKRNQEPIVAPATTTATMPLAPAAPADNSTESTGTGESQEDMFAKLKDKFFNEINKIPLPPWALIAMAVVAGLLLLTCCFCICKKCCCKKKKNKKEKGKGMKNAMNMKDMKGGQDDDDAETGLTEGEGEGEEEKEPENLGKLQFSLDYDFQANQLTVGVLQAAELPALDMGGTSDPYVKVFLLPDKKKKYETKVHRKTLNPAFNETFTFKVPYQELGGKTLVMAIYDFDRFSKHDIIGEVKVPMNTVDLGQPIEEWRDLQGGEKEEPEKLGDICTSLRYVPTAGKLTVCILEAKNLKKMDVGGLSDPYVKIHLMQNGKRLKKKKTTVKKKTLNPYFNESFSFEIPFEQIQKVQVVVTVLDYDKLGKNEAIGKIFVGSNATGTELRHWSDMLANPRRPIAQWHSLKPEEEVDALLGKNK", "experiment": "SPR; […] (1 µM); […], single-cycle kinetics, 1:1 model, […]; 25 °C, HBS pH 7.4, 150 mM NaCl"}
{"substance": "BoNT/B (B1 Okra strain) neurotoxin with non-toxic accessory proteins (complex)", "values": [{"measurement": "Kd", "value": 1.4, "unit": "nM"}, {"measurement": "koff", "value": 0.00041, "unit": "s⁻¹"}, {"measurement": "kon", "value": 310000, "unit": "M⁻¹ s⁻¹"}]}
{"substance": "BoNT/B holotoxin (B1), pure botulinum neurotoxin type B (natural protein)", "values": [{"measurement": "Kd", "value": 0.6, "unit": "nM"}, {"measurement": "koff", "value": 0.00013, "unit": "s⁻¹"}, {"measurement": "kon", "value": 230000, "unit": "M⁻¹ s⁻¹"}]}
